Consider two compounds from publication PMC3938430, “Biochemical Characterization of a Haloalkane Dehalogenase DadB from Alcanivorax dieselolei B-5” (PLoS ONE, 2014).

Holding throughout (experiment): steady-state kinetics, gas chromatography (FID)
One data set deals with T1, DadB (Alloalcanivorax dieselolei, UniProt K0CAI2).
T1 construct: gene B5T_00392; HLD-II subfamily, nucleophile D108
The class given is biochemical. To be noted: 100 mM glycine buffer, pH 8.6, 37°C; substrate self-inhibition constant. The text has this:
(§1) steady-state kinetics, gas chromatography (FID) on DadB

For the next data set, the system named is T2, BrCCBr.
T2 construct: HLD-II subfamily, nucleophile D108
The class given is biochemical, Alloalcanivorax dieselolei. To be noted: 100 mM glycine buffer, pH 8.6, 37°C.
Description: as §1

The test system of the next data set is BrCCCBr. The class given is biochemical, Alloalcanivorax dieselolei. To be noted: 100 mM glycine buffer, pH 8.6, 37°C.
Description: as §1

Another data set deals with T3, C=C(C)CCl.
T3 construct: HLD-II subfamily, nucleophile D108
The class given is biochemical, Alloalcanivorax dieselolei. To be noted: 100 mM glycine buffer, pH 8.6, 37°C.
Description: as §1

A further data set concerns T4, C=C(Cl)CCl.
T4 construct: HLD-II subfamily, nucleophile D108
The class given is biochemical, Alloalcanivorax dieselolei. To be noted: 100 mM glycine buffer, pH 8.6, 37°C.
Description: as §1

Another data set has as its system CCCCCl. The class given is biochemical, Alloalcanivorax dieselolei. To be noted: 100 mM glycine buffer, pH 8.6, 37°C.
Description: as §1

A further data set deals with N#CCCCBr. Format: biochemical, Alloalcanivorax dieselolei. To be noted: 100 mM glycine buffer, pH 8.6, 37°C, fit with substrate inhibition.
Description: as §1

With `N#CCCCBr` [4-bromobutanenitrile], the “k i” value on DadB worked out at 17.93 ± 1.97 mM.

By Km is commonly meant the concentration of substrate that gives half-maximal velocity. As usually defined, the kcat is the maximal rate divided by the concentration of active sites. A word on the kcat/Km: it is the second-order rate constant that governs catalysis at low substrate concentration. On to DadB (Alloalcanivorax dieselolei B5), for which the Km in the data set on BrCCBr is 8.70 ± 0.44 mM; in the data set with BrCCCBr it was 0.82 ± 0.04 mM; with C=C(C)CCl, 11.33 ± 0.99 mM; in the data set with C=C(Cl)CCl, 15.06 ± 1.37 mM; in the data set with CCCCCl, 4.88 ± 0.35 mM; in the data set on N#CCCCBr it was 8.47 ± 1.27 mM. Besides, the catalytic constant (kcat) with BrCCBr was determined as 17.9 ± 0.5 s⁻¹; with BrCCCBr, 13.4 ± 0.99 s⁻¹; in the data set on C=C(C)CCl, 34.3 ± 1.99 s⁻¹; with C=C(Cl)CCl, 20.1 ± 1.09 s⁻¹; in the data set on CCCCCl, 1.17 ± 0.1 s⁻¹; in the data set on N#CCCCBr, 30.8 ± 2.49 s⁻¹. Also, the kcat/Km with BrCCBr came to 2060 M⁻¹ s⁻¹; in the data set with BrCCCBr, 16400 M⁻¹ s⁻¹; with C=C(C)CCl it was 3020 M⁻¹ s⁻¹; in the data set on C=C(Cl)CCl, 1330 M⁻¹ s⁻¹; in the data set with CCCCCl, 240 M⁻¹ s⁻¹; in the data set with N#CCCCBr, 3640 M⁻¹ s⁻¹.
